Legend:
PD-L1 = PD-L1 (UniProt Q9NZQ7 19-290, limits assumed); experiment: flow cytometry cell binding on MDA231 cells (Cy3 goat anti-human IgG); antibody concentration not given
CD55 = target: T1, CD55 (UniProt P08174 35-353, limits assumed); experiment: as above
T1 construct: In the internalization assay CD55 stood on MDA231 and SIHA cells
T1 sequence (looked up): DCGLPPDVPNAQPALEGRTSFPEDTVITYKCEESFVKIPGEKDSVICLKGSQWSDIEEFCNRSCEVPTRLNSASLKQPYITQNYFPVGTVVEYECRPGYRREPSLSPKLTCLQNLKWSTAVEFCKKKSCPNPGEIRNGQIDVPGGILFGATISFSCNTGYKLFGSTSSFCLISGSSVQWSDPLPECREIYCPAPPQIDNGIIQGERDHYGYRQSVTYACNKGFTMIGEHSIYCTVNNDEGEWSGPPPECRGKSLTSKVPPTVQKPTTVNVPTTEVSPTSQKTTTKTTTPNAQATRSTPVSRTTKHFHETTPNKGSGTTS

[1] = target: T2, CD20 (on CD20 positive Raji cells) (UniProt P11836 1-297, limits assumed); experiment: flow cytometry cell binding on CD20+ Raji cells, 3-fold titration 10 to 0.04 µg/ml and 0
T2 construct: whole, on cells; Raji is a human B cell line
T2 sequence (looked up): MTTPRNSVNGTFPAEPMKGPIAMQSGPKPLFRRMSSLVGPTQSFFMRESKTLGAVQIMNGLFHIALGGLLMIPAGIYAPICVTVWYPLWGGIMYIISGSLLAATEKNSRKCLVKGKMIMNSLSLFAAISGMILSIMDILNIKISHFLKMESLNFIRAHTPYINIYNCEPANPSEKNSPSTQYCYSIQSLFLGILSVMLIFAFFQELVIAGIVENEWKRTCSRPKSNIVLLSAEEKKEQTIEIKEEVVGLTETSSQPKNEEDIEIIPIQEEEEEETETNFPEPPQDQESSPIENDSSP

PD-L1, sequence (Q9NZQ7 19-290 limits assumed): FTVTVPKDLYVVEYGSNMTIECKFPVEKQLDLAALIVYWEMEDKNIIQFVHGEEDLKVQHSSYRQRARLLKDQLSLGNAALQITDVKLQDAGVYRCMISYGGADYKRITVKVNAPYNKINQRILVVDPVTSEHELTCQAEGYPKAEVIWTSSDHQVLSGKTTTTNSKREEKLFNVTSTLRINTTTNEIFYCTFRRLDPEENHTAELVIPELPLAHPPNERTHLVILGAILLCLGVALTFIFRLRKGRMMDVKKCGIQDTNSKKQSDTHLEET

B1: Anti-PD-L1 homodimer IgG (PD-L1 v1) containing the designed VH sequence (SEQ ID NO: 4) and the common VL sequence (SEQ ID NO: 6) (antibody, V domains shown)
VH: EVQLLESGGGLVEPGGSLRLSCAASGFTFSSYIMMWVRQAPGKGLEWVSSIYPSGGITFYADTVKGRFTISRDNSKNTLYLQMNSLRAEDTAVYYCARIKLGTVTTVDYWGEGTLVTVSS
VL: QSALTQPASVSGSPGQSITISCTGTSSDVGGYNYVSWYQQHPGKAPKLMIYDVSKRPSGVSNRFSGSKSGNTASLTISGLQAEDEADYYCSSYTSASTRIFGGGTKVTVLR
notes: Homodimer IgG; The heavy chain constant region of the homodimer is not specified; also called PD-L1 mono-dimer IgG; PDL1 homodimer version 1
B1: binds (PD-L1).

B2: Anti-CD55 homodimer IgG (CD55 v1) containing the designed VH sequence (SEQ ID NO: 5) and the common VL sequence (SEQ ID NO: 6) (antibody, V domains shown)
VH: QVKLQESGGGLVKPGGSLKLSCAASGFTFSGYGMSWIRQTPGKRLEWVATINSGGSYTYYSDSVKGRFTISRDNVKNTLYLQMSSLKSEDTAMYYCARRNGTLYYYLMDYWGRGTLVTVSS
VL: QSALTQPASVSGSPGQSITISCTGTSSDVGGYNYVSWYQQHPGKAPKLMIYDVSKRPSGVSNRFSGSKSGNTASLTISGLQAEDEADYYCSSYTSASTRIFGGGTKVTVLR
notes: Homodimer IgG; also called CD55 mono-dimer IgG; CD55 homodimer version 1
B2: binds (CD55).

B3: parental anti-CD20 IgG (Rituximab) (antibody, V domains shown)
VH: QVQLQQPGAELVKPGASVKMSCKASGYTFTSYNMHWVKQTPGRGLEWIGAIYPGNGDTSYNQKFKGKATLTADKSSSTAYMQLSSLTSEDSAVYYCARSTYYGGDWYFNVWGAGTTVTVSA
VL: QIVLSQSPAILSASPGEKVTMTCRASSSVSYIHWFQQKPGSSPKPWIYATSNLASGVPVRFSGSGSGTSYSLTISRVEAEDAATYYCQQWTSNPPTFGGGTKLEIKR
notes: tested as IgG; also called Parental CD20; CD20 parental Ab
For B3, the “EC50 (read off the curve)” value [1] was roughly 0.2 µg/mL.

B4: parental anti-CD3 IgG (MAb 12F6) (antibody, V domains shown)
VH: QVQLQQSGAELARPGASVKMSCKASGYTFTSYTMHWVKQRPGQGLEWIGYINPSSGYTKYNQKFKDKATLTADKSSSTAYMQLSSLTSEDSAVYYCARWQDYDVYFDYWGQGTTLTVSS
VL: QIVLSQSPAILSASPGEKVTMTCRASSSVSYMHWYQQKPGSSPKPWIYATSNLASGVPARFSGSGSGTSYSLTISRVEAEDAATYYCQQWSSNPPTFGGGTKLETKR
notes: tested as IgG; also called Parental CD3; CD3 parental Ab
B4: no binding (tested: 10 µg/ml) [1].

B5: CD3 homodimer IgG containing the designed VH sequence (SEQ ID NO: 2) and the common VL sequence (SEQ ID NO: 3) (antibody, V domains shown)
VH: EVQLQESGAELARPGASVKMSCKASGYTFTSYTMHWVKQRPGEGLEWIGYINPSSGYTKYNQKFKDKATLTADKSSSTAYMELSSLTSEDSAVYYCARWQDYDVYFDYWGEGTTLTVSS
VL: QIVLSQSPAILSASPGEKVTMTCRASSSVSYIHWFQQKPGSSPKPWIYATSNLASGVPVRFSGSGSGTSYSLTISRVEAEDAATYYCQQWTSNPPTFGGGTKLEIKR
notes: Homodimer IgG with two VHb and two common VL; also called redesigned 12F6; antibody B
B5: no binding (tested: 10 µg/ml) [1].

B6: CD20 homodimer IgG containing the designed VH sequence (SEQ ID NO: 1) and the common VL sequence (SEQ ID NO: 3) (antibody, V domains shown)
VH: QVQLQQPGAELVKPGASVKMSCKASGYTFTSYNMHWVKQTPGRGLEWIGAIYPGNGDTSYNQKFKGKATLTADKSSSTAYMQLSSLRSEDSAVYYCARSTYYGGDWYFNVWGAGTTVTVSA
VL: QIVLSQSPAILSASPGEKVTMTCRASSSVSYIHWFQQKPGSSPKPWIYATSNLASGVPVRFSGSGSGTSYSLTISRVEAEDAATYYCQQWTSNPPTFGGGTKLEIKR
notes: Homodimer IgG with two VHa and two common VL; VHa is the Rituximab VH with T83R (Kabat); also called redesigned Rituximab; antibody A
B6 was tested, and the “EC50 (read off the curve)” value [1] was roughly 0.4 µg/mL.

B7: parental anti-CD55 antibody (CD55 wt) (antibody, V domains shown)
VH: QVKLQESGGGLVQPGGSLKLSCAASGFTFSGYGMSWIRQTPDKRLEWVATINSGGSYTYYSDSVKGRFTISRDNVKNTLYLQMSSLKSEDTAMYYCARRNGTLYYYLMDYWGRGTLVTVSS
VL: QSVLTQPPSASGSPGQSVTISCTGTSSDVGGYNYVSWYQQHPGKAPKFMIYDVSKRPSGVSNRFSGSKSGNTASLTISGVQAEDEADYYCSSYTSASTVIFGGGTKLTVL
notes: The variable domains come from a published CD55 scFv; also called CD55 parental Ab; anti-CD55 parental monoclonal antibody
B7: binds (CD55).
